# According to patent publication US20240076371A1, “COMPOSITIONS AND METHODS FOR TREATING OSTEOARTHRITIS, RHEUMATOID ARTHRITIS, AND JOINT AND TENDON DISORDERS” (BOARD OF REGENTS, THE UNIVERSITY OF TEXAS SYSTEM, priority 2021, published 2024):
# Like-named read-outs stand apart in the source and are kept apart here.
# B1: M1 antibody: antibody with variable heavy chain SEQ ID NO: 58 and variable light chain SEQ ID NO: 60; inhibits or blocks opening of Cx43 hemichannel (antibody, V domains shown)
# VH: EVQLQQPGAELVKPGASVKLSCKASGYTFTSYYMYWVKQRPGQGLEWIGGINPSNGGTNFNEKFKNKATLTVDKSSSTAYMQLSSLTSEDSAVYYCTREGNPYYTMNYWGQGTSVTVSS
# VL: DIVMTQSPSSLSVSAGEKVTMSCKSSQSLLNSGNQKTYLAWYQQKPGQPPKLLIYGASTRESGVPDRFTGSGSGTDFTLTISSVQAEDLAVYYCQNDHSYPFTFGSGTKLEIK
# System: post-traumatic OA model (DMM) in male C57BL/6 mice
# Type: in vivo, mouse
# Protocol: Materials and Methods. Animals and surgery model. The mice used were of C57BL/6 background. The mice were housed in a temperature-controlled room with a light/dark cycle of 12 hours under specific pathogen-free conditions. Food and water were provided ad libitum. Destabilization of the medial meniscus (DMM) surgery was performed on the right knee joint of mice (Glasson S S, et al. Osteoarthritis and cartilage. 2007; 15(9):1061-9). Briefly, a 3 mm longitudinal incision over the distal patella to proximal tibial plateau was made. The joint capsule immediately medial to the patellar tendon was incised with a #15 blade and the joint capsule opened with micro-iris scissors. Blunt dissection of the fat pad over the intercondylar area was then performed to expose the intercondylar region, providing visualization of the meniscotibial ligament of the medial meniscus. Mild hemorrhage from the fat pad upon blunt dissection was controlled by pressure from absorption spears. Sectioning of medial meniscotibial ligament with micro-surgical knife, with the blade directed proximo-laterally, gave destabilization of the medial meniscus (DMM). Sham surgery was performed with the ligament visualized but not transected. Histology. At 8 weeks after the induction of osteoarthritis (OA), the femur and tibia bones isolated from DMM and sham operated mice were fixed in 4% paraformaldehyde for 2 days prior to decalcification with 10% EDTA (pH 7.5) for 3 weeks. The samples were embedded in paraffin, and 5-μm-thick sections were collected on glass slides. Sections were deparaffinized in xylene, followed by a graded series of alcohol washes. To determine the extent of cartilage deterioration, sections were stained with Safranin O/Fast Green. OARSI scoring was performed to evaluate knee joint articular cartilage destruction (Glasson S S, et al. Osteoarthritis and cartilage. 2010; 18 Suppl 3:S17-23). Specifically, both medial femoral condyle and medial tibial plateau were analyzed through three-level sections of the joints and the severity of OA is expressed as the averaged and summed scores for the entire joint. Results. Inhibition of Cx43 hemichannel ameliorates histopathological changes of OA. To investigate the function of Cx43 hemichannel in OA progression, post-traumatic OA model was induced in male C57BL/6 mice by surgically destabilization of the medial meniscus (DMM). The anti-Cx43 hemichannel blocking antibody (M1 antibody) or saline was administered by intraperitoneal injection twice at 30 minutes and four weeks post-surgery (FIG. 1A). Histological staining of Safranin O/Fast Green was utilized to visualize the severity of articular cartilage damage, which was determined using the Osteoarthritis Research Society International (OARSI) scoring system (Glasson S S, et al. Osteoarthritis and cartilage. 2010; 18 Suppl 3:S17-23) by two blinded observers (FIGS. 1B-D). […] Moreover, synovium hyperplasia was quantified by the synovitis score ([…], et al. Pathology, research and practice. 2002; 198(5):317-25; and Huesa C, et al. Annals of the rheumatic diseases. 2016; 75(11):1989-97).
molecule,measurement,setting,value
B1,OARSI scores in medial tibial plateau and medial femoral condyle,"DMM mice, i.p. twice at 30 minutes and four weeks post-surgery, 8 weeks after DMM, vs saline",significant reduction
same,Summed OARSI score of MTP and MFC (structural integrity of the articular cartilage),"DMM mice, i.p. twice, 8 weeks after DMM, three-level sections",significantly improved structural integrity
same,pathologic changes in the articular cartilage of sham-operated mice,"mouse, in vivo, ip",did not exhibit pathologic changes
same,OARSI scores in medial tibial plateau and medial femoral condyle,"single i.p. injection at 30 minutes post-surgery, eight weeks after DMM",significant reduction
same,proteoglycan loss and cartilage erosion (Safranin O/Fast Green),"single i.p. injection at 30 minutes post-surgery, eight weeks after DMM, vs saline",less proteoglycan loss and cartilage erosion
